From patent US20040110688

What was measured:
factor VIIIa, P00451 = target: T1, factor VIIIa, P00451
T1 chain: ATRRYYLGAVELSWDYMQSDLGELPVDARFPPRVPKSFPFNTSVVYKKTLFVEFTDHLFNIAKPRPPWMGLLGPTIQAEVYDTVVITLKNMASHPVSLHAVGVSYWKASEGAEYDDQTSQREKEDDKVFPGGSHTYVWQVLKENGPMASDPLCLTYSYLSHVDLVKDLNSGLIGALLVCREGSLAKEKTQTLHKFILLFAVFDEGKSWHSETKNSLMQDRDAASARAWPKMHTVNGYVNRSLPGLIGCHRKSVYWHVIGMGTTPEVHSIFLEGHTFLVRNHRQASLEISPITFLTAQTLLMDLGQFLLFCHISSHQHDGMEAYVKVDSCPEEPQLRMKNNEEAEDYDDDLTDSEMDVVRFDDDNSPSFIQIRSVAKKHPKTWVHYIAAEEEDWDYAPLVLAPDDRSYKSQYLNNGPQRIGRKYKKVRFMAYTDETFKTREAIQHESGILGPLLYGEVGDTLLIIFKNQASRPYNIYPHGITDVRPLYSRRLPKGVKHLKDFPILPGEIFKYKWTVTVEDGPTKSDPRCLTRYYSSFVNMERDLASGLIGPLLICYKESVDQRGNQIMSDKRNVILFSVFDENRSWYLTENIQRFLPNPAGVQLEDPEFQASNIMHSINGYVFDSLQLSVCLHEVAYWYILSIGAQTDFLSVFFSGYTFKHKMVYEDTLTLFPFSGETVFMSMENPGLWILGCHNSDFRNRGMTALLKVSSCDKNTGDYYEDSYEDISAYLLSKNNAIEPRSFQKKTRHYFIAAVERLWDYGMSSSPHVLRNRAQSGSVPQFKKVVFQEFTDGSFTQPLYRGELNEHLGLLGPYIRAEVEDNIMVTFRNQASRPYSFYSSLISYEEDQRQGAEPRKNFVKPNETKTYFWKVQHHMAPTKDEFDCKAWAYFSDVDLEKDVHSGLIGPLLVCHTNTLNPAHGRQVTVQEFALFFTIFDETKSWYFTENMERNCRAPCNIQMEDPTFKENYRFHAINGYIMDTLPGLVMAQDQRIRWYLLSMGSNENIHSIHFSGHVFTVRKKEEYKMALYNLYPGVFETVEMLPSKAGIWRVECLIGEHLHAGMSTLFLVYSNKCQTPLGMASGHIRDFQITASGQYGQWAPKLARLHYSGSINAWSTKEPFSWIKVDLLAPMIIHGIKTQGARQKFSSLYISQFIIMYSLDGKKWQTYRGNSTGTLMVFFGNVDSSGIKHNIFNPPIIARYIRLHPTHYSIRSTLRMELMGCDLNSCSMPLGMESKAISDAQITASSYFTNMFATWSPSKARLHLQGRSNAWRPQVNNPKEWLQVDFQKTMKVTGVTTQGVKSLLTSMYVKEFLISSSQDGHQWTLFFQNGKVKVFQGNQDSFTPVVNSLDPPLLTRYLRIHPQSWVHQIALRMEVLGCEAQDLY

B1: IXahelixVII (protein)
chain 1: YNSGKLEEFVQGNLERECMEEKCSFEEAREVFENTERTTEFWKQYVDGDQCESNPCLNGGSCKDDINSYECWCPFGFEGKNCELDVTCNIKNGRCEQFCKNSADNKVVCSCTEGYRLAENQKSCEPAVPFPCGRVSVSQTSKLTR
chain 2: VVGGEDAKPGQFPWQVVLNGKVDAFCGGSIVNEKWIVTAAHCVETGVKITVVAGEHNIEETEHTEQKRNVIRIIPHHNYNAAINKYNHDIALLELDEPLVLNSYVTPICIADKEYTNIFLKFGSGYVSGWGRVFHKGRSALVLQYLRVPRLMTQDCLQSTKFTIYNNMFCAGFHEGGRDSCQGDSGGPHVTEVEGTSFLTGIISWGEECAMKGKYGIYTKVSRYVNWIKEKTKLT
Factor VIIIa, P00451
  X-activation rate, PL-minus system (14 nM VIIIa, 400 nM X): NM
  X-activation rate, PL-plus system (70 pM VIIIa, 0.5 nM IXa, 15 nM X): NM
  rate of factor X activation with phospholipid, factor VIIIa increased from 70 pM to 14 nM: for IXahelixVII it was still not measurable
Factor X, P00742
  rate of factor Xa generation, Ca2+ and phospholipid, no VIIIa (20 nM IXa, 100 nM X): The rate of factor Xa generation in each case was 0.1 nM/min
